Consider one molecule from patent publication WO2021032966A1.

The test has as its target Ab42 oligomers (formed during the in vitro aggregation reaction of Ab42). Nature of the test: time-course indirect ELISA on samples of the Ab42 aggregation reaction.

Sequence of Ab42 oligomers (formed during the in vitro aggregation reaction of Ab42) (peptide, as listed by the source): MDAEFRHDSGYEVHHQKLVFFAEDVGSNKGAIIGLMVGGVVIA

B1: DesAb-O (VHH)
VHH: EVQLVESGGGLVQPGGSLRLSCAASGFNIKDTYIGWVRRAPGKGEEWVASIYPTNGYTRYADSVKGRFTISADTSKNTAYLQMNSLRAEDTAVYYCAAGSESAFGRAEEEAAAWGQGTLVTVSS
Consider B1, for which the fold of ELISA absorbance at 1 hour of incubation over the initial time of aggregation came to 3 fold.
